These results are taken from article PMC8839947, “Highly Sensitive RNA-Based Electrochemical Aptasensor for the Determination of C-Reactive Protein Using Carbon Nanofiber-Chitosan Modified Screen-Printed Electrode”.

The target in this series is T1, C-reactive protein (CRP) (UniProt P02741 19-224).
T1 sequence: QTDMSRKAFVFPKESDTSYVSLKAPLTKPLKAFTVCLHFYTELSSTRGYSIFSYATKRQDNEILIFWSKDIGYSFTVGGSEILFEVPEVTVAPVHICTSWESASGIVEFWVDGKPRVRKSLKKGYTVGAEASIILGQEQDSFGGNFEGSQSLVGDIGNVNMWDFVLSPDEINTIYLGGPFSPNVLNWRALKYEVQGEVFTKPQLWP
Kind of series: square-wave voltammetry (Langmuir isotherm, MB signal-off electrode); 2 mM CaCl2; 60 min incubation; KL 1.07 pM-1; CRP incubation in 0.1 M Tris pH 7.4, 2 mM CaCl2, 60 min; SWV read-out in PBS (0.1 M, pH 7.4); BSA-blocked electrode; incubation temperature not stated (298 K used in calculations). The following applies: protein: commercial; chain copies: 5; label: methylene blue self-assembled (non-covalent); immobilized via glutaraldehyde on CNFs-chitosan carbon screen-printed electrode.

In the case of GCCUGUAAGGUGGUCGGUGUGGCGAGUGUGUUAGGAGAGAUUGC (structured_RNA, 5'-NH2-(CH2)6) [CRP RNA aptamer (5'-amino)], the Kd was 0.93 pM.
